Source: patent US20090136475A1 (FRAUNHOFER GESELLSCHAFT ZUR FORDERUNG DER ANGEWANDTEN …, published 2009)

Columns and labels:
[1] = target: CD30 molecule on the Hodgkin-derived CD30-positive cell line L540Cy (UniProt P28908); assay: cell-based or functional assay
[2] = target: T1, CD30 molecule on the Hodgkin-derived CD30-positive cell line L540Cy (UniProt P28908 19-595, limits assumed); assay: flow cytometry on L540Cy cells, detection by anti-penta-His and FITC goat-anti-mouse IgG
T1 construct: whole, on cells; the cell lines are human-derived; also called CD30-positive cells
T1 sequence (looked up): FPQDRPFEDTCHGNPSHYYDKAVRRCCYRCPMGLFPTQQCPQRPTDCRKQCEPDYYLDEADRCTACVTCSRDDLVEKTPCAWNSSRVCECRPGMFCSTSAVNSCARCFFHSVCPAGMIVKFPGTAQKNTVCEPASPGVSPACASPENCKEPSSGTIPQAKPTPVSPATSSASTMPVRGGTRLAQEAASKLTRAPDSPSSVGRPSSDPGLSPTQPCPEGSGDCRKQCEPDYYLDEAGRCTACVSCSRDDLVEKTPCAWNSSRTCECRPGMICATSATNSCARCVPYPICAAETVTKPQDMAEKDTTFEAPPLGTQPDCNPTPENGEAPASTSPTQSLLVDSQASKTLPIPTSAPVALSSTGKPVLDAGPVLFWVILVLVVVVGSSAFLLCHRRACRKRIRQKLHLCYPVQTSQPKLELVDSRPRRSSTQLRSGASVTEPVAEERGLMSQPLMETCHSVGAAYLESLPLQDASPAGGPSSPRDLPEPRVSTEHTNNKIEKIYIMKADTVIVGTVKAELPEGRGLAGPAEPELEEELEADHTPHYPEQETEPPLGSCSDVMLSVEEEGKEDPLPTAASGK
Experimental: Cell binding activity of the recombinant complexes (immunokinases) expressed in E. coli BL21 Star™ (DE3) was evaluated using a FACSCalibur flow cytometry instrument and CellQuest software (Becton Dickinson, Heidelberg, Germany). Cells were stained with recombinant protein as described (25). Briefly, ten thousand events were collected for each sample, and analyses of Intact cells were performed using appropriate scatter gates to exclude cellular debris and aggregates. 5×10⁵ cells were incubated for 1 h on ice with 50 μl of bacterial protein extract at a concentration of 30-40 μg/ml or 100 μl of the immunokuinase containing supernatants respectively. The cells were washed with PBS buffer containing 0.2% w/v BSA and 0.05% w/v sodium azide (PBA) and then incubated for 30 min with anti-penta-His moab (Qiagen) diluted 1:2 in PBA buffer. Cells were washed and incubated with fluorescein-iso-thiocyanate (FITC)-labeled goat-anti-mouse IgG (DAKO Diagnostica, Hamburg, Germany) for 1 h at 4° C. After a final wash, the cells were treated with 2 μl 6.25 mg/ml propidiumiodide and subsequently analyzed on a FACScalibur (Becton Dickison, Heidelberg, Germany).

Molecule “recombinant complex (immunokinase) pMS-(L-DAPk2-Ki-4)-III/G, protein L-DAPk2-Ki-4-MH” has a calculated median IC50, growth inhibition of L540Cy cells, XTT-based colorimetric assay [1] of 0.004 to 0.035 µg/mL.

B1: recombinant complex (immunokinase) pMT-Ki-4(scFv)-eEF-2K (other)
chain: MGHHHHHHHHHHSSGHIDDDDKHMKLMAQPAMAQVKLQESGTELAKPGAAVKMSCKASGYTFTDYWMHWVKQRPGQGLEWIGYINPNTAYTDYNQKFKDKATLTADKSSSTAYMQLRSLTSEDSAVYYCAKKTTQTTWGFPFWGQGTTVTVSSGGGGSGGGGSGGGGSDIVLTQSPKSMAMSVGERVTLSCKASENVDSFVSWYQQKPGQSPKLLIYGASNRYTGVPDRFAGSGSGRDFTLTISSVQAEDLADYHCGQNYRYPLTFGAGTKLEIKRAAAELGGGGSMADEDLIFRLEGVDGGQSPRAGHDGDSDGDSDDEEGYFICPITDDPSSNQNVNSKVNKYYSNLTKSERYSSSGSPANSFHFKEAWKHAIQKAKHMPDPWAEFHLEDIATERATRHRYNAVTGEWLDDEVLIKMASQPFGRGAMRECFRTKKLSNFLHAQQWKGASNYVAKRYIEPVDRDVYFEDVRLQMEAKLWGEEYNRHKPPKQVDIMQMCIIELKDRPGKPLFHLEHYIEGKYIKYNSNSGFVRDDNIRLTPQAFSHFTFERSGHQLIVVDIQGVGDLYTDPQIHTETGTDFGDGNLGVRGMALFFYSHACNRICESMGLAPFDLSPRERDAVNQNTKLLQSAKTILRGTEEKCGSPRVRTLSGSRPPLLRPLSENSGDENMSDVTFDSLPSSPSSATPHSQKLDHLHWPVFSDLDNMASRDHDHLDNHRESENSGDSGYPSEKRGELDDPEPREHGHSYSNRKYESDEDSLGSSGRVCVEKWNLLNSSRLHLPRASAVALEVQRLNALDLEKKIGKSILGKVHLAMVRYHEGGRFCEKGEEWDQESAVFHLEHAANLGELEAIVGLGLMYSQLPHHILADVSLKETEENKTKGFDYLLKAAEAGDRQSMILVARAFDSGQNLSPDRCQDWLEALHWYNTALEMTDCDEGGEYDGMQDEPRYMMLAREAEMLFTGGYGLEKDPQRSGDLYTQAAEAAMEAMKGRLANQYYQKAEEAWAQMEE
notes: Single-chain fusion: pelB signal peptide, enterokinase-cleavable His10 tag, anti-CD30 Ki-4 scFv, eukaryotic elongation factor-2 kinase; It was expressed in the periplasm of E. coli BL21 Star (DE3) and purified by IMAC and SEC
B1: binds [2].
